Data as given in patent publication US6716858B1, “Methods for inhibiting diabetic complications” (Kansas University Medical Center, priority 1995, dated 2004).

How the values were obtained:
[1] = test system: post-Amadori AGE formation, RNase Amadori intermediate; assay: Interrupted (post-Amadori) ribose glycation assay, RNase; assay type: biochemical, bovine; conditions: up to 50 mM; protein not stated (FIG. 21)
Experimental: ELISA detection of AGE products. The general method of Engvall (1981, Methods Enzymol. 70:419-439) was used to perform the ELISA. Typically, glycated protein samples were diluted to approximately 1.5 ug/ml in 0.1 M sodium carbonate buffer of pH 9.5 to 9.7. The protein was coated overnight at room temperature onto 96-well polystyrene plates by pippetting 200 ul of the protein solution in each well (0.3 ug/well). After coating, the protein was washed from the wells with a saline solution containing 0.05% Tween-20. The wells were then blocked with 200 ul of 1% casein in carbonate buffer for 2 h at 37° C. followed by washing. Rabbit anti-AGE antibodies were diluted at a titer of about 1:350 in incubation buffer, and incubated for 1 h at 37° C., followed by washing. In order to minimize background readings, antibodies R479 used to detect glycated RNase were raised against glycated BSA, and antibodies R618 used to detect glycated BSA and glycated Hb were raised against glycated RNase. An alkaline phosphatase-conjugated antibody to rabbit IgG was then added as the secondary antibody at a titer of 1:2000 or 1:2500 (depending on lot) and incubated for 1 h at 37° C., followed by washing. The p-nitrophenylphosphate substrate solution was then added (200 ul/well) to the plates, with the absorbance of the released p-nitrophenolate being monitored at 410 nm with a Dynatech MR 4000 microplate reader.
Glycation Modifications Modification with ribose or glucose was generally done at 37° C. in 0.4 M phosphate buffer of pH 7.5 containing 0.02% sodium azide. The high buffer concentration was always used with 0.5 M ribose modifications. The solutions were kept in capped tubes and opened only to remove timed aliquots that were immediately frozen for later carrying out the various analyses. “Interrupted glycation” experiments were carried out by first incubating protein with the ribose at 37° C. for 8 or 24 h, followed by immediate and extensive dialysis against frequent cold buffer changes at 4° C. The samples were then reincubated by quickly warming to 37° C. in the absence of external ribose. Aliquots were taken and frozen at various intervals for later analysis. Due to the low molecular weight of RNase, protein concentrations were remeasured after dialysis even when low molecular weight cut-off dialysis tubing was used. An alternative procedure was also devised (see below) in which interruption was achieved by simple 100-fold dilution from reaction mixtures containing 0.5 M ribose. Protein concentrations were estimated from UV spectra. The difference in molar extinction between the peak (278 nm) and trough (250 nm) was used for RNase concentration determinations in order to compensate for the general increase in UV absorbance that accompanies glycation. Time-dependent UV-difference spectral studies were carried out to characterize the glycation contributions of the UV spectrum. […]
Glycation was first carried out by incubating protein (10 mg/ml) with 0.5 M ribose at 37° C. in 0.4 M phosphate buffer at pH 7.5 containing 0.2% sodium azide for 24 h in the absence of inhibitors. Glycation was then interrupted to remove excess and reversibly bound (Schiff base) sugar by extensive dialysis against frequent cold buffer changes at 4° C.

[2] = test system: Sprague-Dawley rats, glomerular changes; assay type: in vivo, rat; conditions: for Alcian Blue pH 1.0, scoring of glomerular staining (sulfated glycosaminoglycans) / Alcian Blue pH 2.5, scoring of glomerular staining (acidic glycosaminoglycans) / HS core protein (Ab BL-31), scoring of glomerular staining: 6 weeks, average with standard error; for Alcian Blue pH 1.0, scoring of glomerular staining (sulfated glycosaminoglycans) / Alcian Blue pH 2.5, scoring of glomerular staining (acidic glycosaminoglycans) / HS core protein (Ab BL-31), scoring of glomerular staining / Creat C-2wk / Creat C-6wk: n = 4; for Creat C-2wk: creatinine clearance at 2 weeks; for Creat C-6wk: creatinine clearance at 6 weeks; for average glomerular volume / decrease in heparan sulfate (HS) side-chain staining relative to controls / glomerular albumin deposition / cross-linking relative to controls / immunofluorescent glomerular staining for Heparan Sulfate Proteoglycan Core protein / immunofluorescent glomerular staining for Heparan Sulfate Proteoglycan side-chain / immunofluorescent glomerular staining for RSA / increase in glomerular volume (GV) relative to controls / Alcian blue pH 1.0 glomerular staining versus controls / increase in acidic glycosaminoglycans, Alcian Blue pH 2.5 staining: rat, in vivo
Experimental: Male Sprague-Dawley rats (Sasco, 100 g) were used. After a 1 week adaptation period, rats were placed in metabolic cages to obtain a 24 hour urine specimen for 2 days before administration of injections. Rats were then divided into experimental and control groups and given tail vein injections with either saline, unmodified RSA (50 mg/kg), Amadori-RSA (50 mg/kg), NaBH4-reduced Amadori-RSA (50 mg/kg), or AGE-RSA (50 mg/kg).
Rats injected with Amadori-RSA and AGE-RSA were then either left untreated, or further treated by the administration of either aminoguanidine (AG; 25 mg/kg), pyridoxamine (PM; 25 mg/kg), or a combination of AG and PM (10 mg/kg each) through the drinking water. Body weight and water intake of the rats were monitored weekly in order to adjust dosages. At the conclusion of the experimental study the rats were placed in metabolic cages to obtain 24 hour urine specimen for 2 days prior to sacrificing the animals.
After perfusion with saline, kidney sections were fixed in ice-cold 10% neutral buffered formalin. Paraffin-embedded tissue sections from all rat groups (n=4 per group) were processed for staining with Harris' alum hematoxylin and eosin (H&E), perodic acid/Schiff reagent (PAS), and alcian blue (pH 1.0 and pH 2.5) stains for histological examination. The alcian blue sections were scored by two investigators in a blinded fashion.
Parrafin-embedded sections were deparaffinized and then blocked with 10% goat serum in PBS for 30 min at room temperature. […] The sections were then rinsed for 30 min with PBS in the dark, mounted in aqueous mounting media for immunocytochemistry (Biomeda), and cover slipped. Sections were scored in a blinded fashion. Kidney sections were evaluated by the number and intensity of glomerular staining in 5 regions around the periphery of the kidney. Scores were normalized for the immunofluorescent score per 100 glomeruli with a scoring system of 0-3.
All animals studies were carried out in conformance with institutional guidelines for animal research protocols. Male Sprague-Dawley 100 g rats (Sasco Co., Omaha Nebr.) were used in these studies. After a 1 week adaptation period, rats were placed in metabolic cages for 2 days to get two 24 hour urine specimens before starting treatment. Rats were then given daily single tail vein injections for 6 weeks according to the following treatment groups: saline, unmodified RSA (50 mg/kg), Amadori-RSA (50 mg/kg), NaBH4-reduced Amadori-RSA (50 mg/kg), and AGE-RSA (50 mg/kg). Groups of rats injected with Amadori-RSA or AGE-RSA were also administered aminoguanidine (25 mg/kg/day), pyridoxamine (25 mg/kg/day), a combination of the two (10 mg/kg/day each), or with nothing added to the drinking water. Body weight and water intake of the rat were monitored weekly in order to adjust dosages. At the conclusion of the study, the rats were placed in metabolic cages for two days to get two 24 hour urine specimens before sacrificing the animals.
Total protein in urine was determined by Bio-Rad assay. Albumin in urine was determined by competitive ELISA using rabbit anti-rat serum albumin (Cappell) as primary antibody (1:2000) and goat anti-rabbit IgG (Sigma) as a secondary antibody (1:2000). Urine was tested with Multistix 8 SG (Miles) for glucose, ketone, specific gravity, blood, pH, protein, nitrite and leukocytes. Creatinine measurements were performed with a Beckman creatinine analyzer II. Intracardiac blood samples were collected before termination and were used in the determination of creatinine clearance, blood glucose (glucose oxidase, Sigma), fructosamine (nitroblue tetrazolium, Sigma), and glycated Hb (Glycotest II analytical boronate columns, Pierce).
After perfusion with saline, kidney sections were fixed in ice-cold 10% neutral buffered formalin. […]

CC(=O)N[C@@H](CCCCN)C(=O)O [N^60 -acetyl-L-lysine, N^α-acetyl-L-lysine]
inhibition of post-Amadori AGE formation [1]: failed to exhibit any significant inhibition of AGE formation

AGE-RSA: Amadori-RSA re-incubated in the absence of sugar for 2-3 days at 37° C.
Alcian Blue pH 1.0, scoring of glomerular staining (sulfated glycosaminoglycans) [2]: 1.25 ± 0.14
Alcian Blue pH 2.5, scoring of glomerular staining (acidic glycosaminoglycans) [2]: 2.44± 0.21
HS core protein (Ab BL-31), scoring of glomerular staining [2]: 238 ± 10
Creat C-2wk [2]: 0.56 ± 0.04 ml/(min*100g)
Creat C-6wk [2]: 0.86 ± 0.11 ml/(min*100g)
average glomerular volume [2]: significant increase in average glomeruli volume
decrease in heparan sulfate (HS) side-chain staining relative to controls [2]: 50%
glomerular albumin deposition / cross-linking relative to controls [2]: four-fold increase
immunofluorescent glomerular staining for Heparan Sulfate Proteoglycan Core protein [2]: slightly reduced staining
immunofluorescent glomerular staining for Heparan Sulfate Proteoglycan side-chain [2]: highly reduced staining
immunofluorescent glomerular staining for RSA [2]: elevated staining
increase in glomerular volume (GV) relative to controls [2]: 30%
Alcian blue pH 1.0 glomerular staining versus controls [2]: significantly decreased
increase in acidic glycosaminoglycans, Alcian Blue pH 2.5 staining [2]: 50-60%

Amadori-RSA: rat serum albumin incubated with 0.5 M ribose for 12 hours, then dialyzed; negative for antigenic AGEs
Alcian Blue pH 1.0, scoring of glomerular staining (sulfated glycosaminoglycans) [2]: 2.00 ± 0.41
Alcian Blue pH 2.5, scoring of glomerular staining (acidic glycosaminoglycans) [2]: 2.12 ± 0.12
HS core protein (Ab BL-31), scoring of glomerular staining [2]: 235 ± 12
Creat C-2wk [2]: 1.02 ± 0.10 ml/(min*100g)
Creat C-6wk [2]: 0.60 ± 0.10 ml/(min*100g)
average glomerular volume [2]: significant increase in average glomeruli volume
decrease in heparan sulfate (HS) side-chain staining relative to controls [2]: 25%
glomerular albumin deposition / cross-linking relative to controls [2]: not different from the controls
immunofluorescent glomerular staining for Heparan Sulfate Proteoglycan Core protein [2]: slightly reduced staining
immunofluorescent glomerular staining for Heparan Sulfate Proteoglycan side-chain [2]: highly reduced staining
immunofluorescent glomerular staining for RSA [2]: elevated staining
increase in glomerular volume (GV) relative to controls [2]: 35%
Alcian blue pH 1.0 glomerular staining versus controls [2]: no significant difference
increase in acidic glycosaminoglycans, Alcian Blue pH 2.5 staining [2]: 50-60%

B1: RSA: purified rat serum albumin, unmodified (protein, UniProt P02770 25-608, looked up)
Albumin: EAHKSEIAHRFKDLGEQHFKGLVLIAFSQYLQKCPYEEHIKLVQEVTDFAKTCVADENAENCDKSIHTLFGDKLCAIPKLRDNYGELADCCAKQEPERNECFLQHKDDNPNLPPFQRPEAEAMCTSFQENPTSFLGHYLHEVARRHPYFYAPELLYYAEKYNEVLTQCCTESDKAACLTPKLDAVKEKALVAAVRQRMKCSSMQRFGERAFKAWAVARMSQRFPNAEFAEITKLATDVTKINKECCHGDLLECADDRAELAKYMCENQATISSKLQACCDKPVLQKSQCLAEIEHDNIPADLPSIAADFVEDKEVCKNYAEAKDVFLGTFLYEYSRRHPDYSVSLLLRLAKKYEATLEKCCAEGDPPACYGTVLAEFQPLVEEPKNLVKTNCELYEKLGEYGFQNAVLVRYTQKAPQVSTPTLVEAARNLGRVGTKCCTLPEAQRLPCVEDYLSAILNRLCVLHEKTPVSEKVTKCCSGSLVERRPCFSALTVDETYVPKEFKAETFTFHSDICTLPDKEKQIKKQTALAELVKHKPKATEDQLKTVMGDFAQFVDKCCKAADKDNCFATEGPNLVARSKEALA
Alcian Blue pH 1.0, scoring of glomerular staining (sulfated glycosaminoglycans) [2]: 2.75 ± 0.14
Alcian Blue pH 2.5, scoring of glomerular staining (acidic glycosaminoglycans) [2]: 1.38 ± 0.24
HS core protein (Ab BL-31), scoring of glomerular staining [2]: 226 ± 10
Creat C-2wk [2]: 0.86 ± 0.16 ml/(min*100g)
Creat C-6wk [2]: 0.70 ± 0.02 ml/(min*100g)

B2: NaBH4-reduced: Amadori-RSA reduced with NaBH4 (protein, UniProt P02770 25-608, looked up)
Albumin: B1 Albumin
modifications: ribose-glycated, NaBH4-reduced
Alcian Blue pH 2.5, scoring of glomerular staining (acidic glycosaminoglycans) [2]: 1.81 ± 0.47
HS core protein (Ab BL-31), scoring of glomerular staining [2]: 203 ± 14
Creat C-6wk [2]: 0.86 ± 0.07 ml/(min*100g)
